For this assay, the target named is I-E^k (mouse MHC class II molecule, α- and β-subunits, six-histidine-tagged) (mouse). Description: peptide exchange induced by ultraviolet irradiation.

In turn, “MCC peptide labeled with indocarbocyanine (Cy3)” returned a percent of Lys99ANP–I-E^k converted into Cy3-labeled MCC–I-E^k of 30%.

The values are drawn from PMC3645478.
